Reference: paper PMC8956657 (2022)
Where no end group is shown, it is not given here.

Assays:
[1] = molecular target: IMPα2 lacking the IBB domain (residues 70-529) (UniProt P52293 70-529); assay: FP
[2] = molecular target: IMPα5 lacking the IBB domain (residues 73-538) (UniProt P52294 73-538); assay: FP
Chain of IMPα5 lacking the IBB domain (residues 73-538) (P52294 73-538): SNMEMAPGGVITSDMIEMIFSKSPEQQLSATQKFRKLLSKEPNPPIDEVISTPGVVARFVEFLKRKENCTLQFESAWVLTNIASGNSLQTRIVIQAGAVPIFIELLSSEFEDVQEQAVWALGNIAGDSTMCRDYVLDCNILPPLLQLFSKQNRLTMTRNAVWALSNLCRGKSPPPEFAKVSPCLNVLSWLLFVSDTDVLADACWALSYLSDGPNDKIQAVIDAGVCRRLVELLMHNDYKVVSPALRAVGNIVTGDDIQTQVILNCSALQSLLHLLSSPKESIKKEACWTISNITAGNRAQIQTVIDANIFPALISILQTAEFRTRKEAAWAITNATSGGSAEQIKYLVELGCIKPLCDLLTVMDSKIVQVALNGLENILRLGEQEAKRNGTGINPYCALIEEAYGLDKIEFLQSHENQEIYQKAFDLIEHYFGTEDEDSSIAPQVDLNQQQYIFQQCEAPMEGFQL

B1: FITC-tagged MERS-CoV ORF4b NLS peptide (residues 19-39), wild type (peptide)
peptide: RKARKRSHSPTKKLRYVKRRF
modifications: also: FITC-tagged
With B1 as the binder, how does the Kd [1] read?
The Kd was 11.3 nM.

What about the Kd [2] of the same binder?
Its Kd is 9.6 nM.
